Several values for one entry are separate records, joined by “and”; a condition that tells them apart may be missing. Equal entries are not always repeated.
Assays:
NDM-1 Kp = assay: LD90 NDM-1 Kp pneumonia murine model, survival; type: in vivo, Balb/c mice; details: for increased survival of Kp infected mice: single i.p. dose, 50 pg/mouse
Description: To establish the optimal CST route, timing, and dosage regimen against MDR NDM-1 Kp-induced pneumonia, Balb/c mice (n=10-20 mice/gp) were infected with an i.n. LD90 and treated at various times and doses as depicted in Table 1. Doses included i.n. and/or i.p. single rCST9, rCSTC or a combination of rCST9 and rCSTC. Mice that were infected with NDM-1 Kp but were not treated served as controls. rCST treatments by routes, doses, or as a combined therapy were studied to select an optimal regimen.
Evaluate optimal timing and dosage of rCST-9 and/or PEG-rCST9 administration post-infection. Balb/c mice (n=10-20 mice/gp) were intranasally (i.n.) infected with approximately 1.82×10^8 CFU/mouse of Kp 2146 (as established hereinabove) then treated i.n. or i.p. with rCST9, human recombinant cystatin C (rCSTC) or a combination of rCST9 and rCSTC as depicted in Table 1. Kp infected alone served as controls. […] Therefore, as a comparative control to rCST9, the inventors evaluated the effectiveness of rCSTC against pneumonia using the same doses of 50 and/or 500 pg/mouse.
The potential for rCST9/rCSTC treatment to extend the period before successful antibiotic intervention was initiated was determined. For these evaluations, suboptimal doses of colistin were used to determine the extent of protection afforded by rCSTs as well as to minimize side effects/toxicity caused by this antibiotic (n=10 mice/gp). Doses, timing, and route of colistin were chosen based on efficacy studies of colistin in a mouse model of severe, established MDR pneumonia or a very low dose of colistin then adjusted to suboptimal levels for this study. LD90 NDM-1 Kp-challenged mice were treated with the rCST9/rCSTC 3 d i.p. treatment and then given 2 doses of colistin at 20 mg/kg/day or 1.25 mg/kg/day on day 4 and 5 PI.
Mouse model of pneumonia and CST treatments. Eight-week old female Balb/c mice weighing between 21 and 24 grams (Jackson Laboratories) were housed in an Association for Assessment and Accreditation for Laboratory Animal Care (AAALAC)-approved housing facility and permitted to adjust to their environment for 7 d prior to procedures, receiving free access to food and water throughout the study. All procedures were approved by the University of Texas Medical Branch IACUC and performed humanely with minimal suffering. […] One hour PI, mice were administered an i.n. dose of rCST9/rCSTC (50 pg of each) and then, this group of mice was given an i.p. injection of rCST9/rCSTC (500 pg of each) 3 d PI. A parallel group of infected mice received only a single i.p. dose of rCST9/rCSTC, PEG-rCST9/rCSTC (500 pg of each), or PEG-rCST9 (500 pg) alone 3 d PI. NDM-1-Kp infected mice alone or uninfected mice served as controls. Survival was observed up to 15 days post treatment. Additional groups (n=4 mice/group) of infected and CST-treated mice were euthanized at selected time points (24 h, 72 h, 5 and/or 10 d PI) to harvest lungs. Additional groups were treated with i.n. rCSTs (50 pg of each) as described above but they were euthanized at 30 min, 1 h and 3 h to collect lungs for the quantification of lipid peroxidase by-product, known as malondialdehyde (MDA), as described below.
Additional groups of mice (n=15 mice/group) were treated with the optimal CST treatment regimens of an i.n. dose of rCST9/rCSTC (50 pg of each), followed by an i.p. injection of rCST9/rCSTC (500 pg of each) 3 d PI or the single i.p. dose of rCST9/rCSTC (500 pg of each). At 4 d PI, mice were given 2 separate i.p. injections of colistin (JHP Pharmaceuticals, LLC; colistimethate sodium; 20 mg/kg/mouse or 1.25 mg/kg/day) 8 h apart for 2 d.

IL-8 = IL-8 secretion from intestinal epithelial cells exposed to E. coli 083:H1 and/or flagellin; type: cell-based; details: after exposure to enteric E. coli 083:H1 and/or flagellin
Description: (§1) It is known that intestinal leakage of intestinal bacteria and their product occurs following burn injury likely contributing to systemic infection and sepsis.

gut microbiome = assay: Gut microbiome in gavaged mice given 30% full-thickness burn; type: in vivo, Balb/c mice; details: gavage 50 pg/mouse, then 30% full-thickness burn
Description: as §1

[1] = tested on: Pseudomonas aeruginosa (isolate from burn patient wound); assay: Viability and virulence of pathogenic bacterial strains; type: cell-based; details: 50 pg dose
[2] = tested on: Salmonella typhimurium (ATCC); assay: as above; type: cell-based; details: 50 pg dose
[3] = tested on: human monocyte-derived macrophage (MDM); assay: Macrophage killing of pathogens; type: cell-based; details: same five pathogens
EC 083:H1 and flagellin = assay: Mouse model of infection and thermal injury, survival; type: in vivo, Balb/c mice; details: i.p. 500 pg rCST9 and/or 50 pg rCSTC; 1000 ng flagellin + 1×10^7 CFU EC 083:H1 i.p.; 30% TBSA burn; observed 10 days
Method: Mice were intraperitoneally (i.p.) challenged with 1×10^7 CFU of an intestinal isolate E. coli (EC) and 1000 ng of flagellin then treated i.p. with 500 pg rCST9 and/or 50 pg rCSTC followed by a 30% full-thickness thermal injury (30% TBSA). […] Additional groups of infected, rCST treated and/or thermally injured mice were euthanized at 24 and 48 h post-thermal injury to collect serum and harvest intestinal samples. Cytokines were quantified in the serum and analysis of the gut microbiome.
Female Balb/c mice (n=6 mice/group), weighing 19-21 grams (Jackson Laboratories), were housed in a facility approved by the Association for Assessment and Accreditation for Laboratory Animal Care (AAALAC). Mice were allowed to adjust to their environment for at least seven days prior to the study and given access to food and water throughout the entire study. All animal procedures were approved by University of Texas Medical Branch IACUC and performed humanely with minimal suffering. Briefly, mice were shaved dorsally the morning of experimentation as previously described (8). The mice were given an i.p. challenge of 1000 ng of flagellin and 1×10^7 CFU/mouse of EC 083:H1 and then treated with 500 pg of rCST9 and/or 50 pg of rCSTC. Immediately following treatment, mice were anesthetized with pentobarbital (Nembutal) and subjected to a 30% total body surface area (TBSA) burn injury. […]

[4] = 50 pg per mouse, i.n., 1 h pre-infection
[5] = 50 pg per mouse, i.n., 3 d post-infection
[6] = 50 pg per mouse, i.p. then i.p., 1 h and 3 d post-infection
[7] = 500 pg per mouse, i.n., 1 h and 3 d post-infection
[8] = 500 pg per mouse, i.n., 1 h pre-infection

Row | Molecule | increased % survival of Kp LD90 mice (NDM-1 Kp; [4]) | increased % survival of Kp LD90 mice (NDM-1 Kp; [5]) | increased % survival of Kp LD90 mice (NDM-1 Kp; [6]) | increased % survival of Kp LD90 mice (NDM-1 Kp; [7]) | increased % survival of Kp LD90 mice (NDM-1 Kp; [8]) | increased survival of Kp infected mice (NDM-1 Kp) | IL-8 secretion from intestinal epithelial cells (IL-8) | gut microbiome (gut microbiome) | viability and virulence [1] | viability and virulence [2] | MDM killing of pathogens [3] | survival (EC 083:H1 and flagellin)
1 | rCSTC: human recombinant cystatin C (CST3), cysteine proteinase inhibitor; purchased from R&D Systems (protein, UniProt P01034 27-146, looked up) Cystatin-C: SSPGKPPRLVGGPMDASVEEEGVRRALDFAVGEYNKASNDMYHSRALQVVRARKQIVAGVNYFLDVELGRTTCTKTQPNLDNCPFHDQPHLKRKAFCSFQIYAVPWQGTMTLSKSTCQDA | increased survival and 20% | 10% | 5% | 10% | 10% | 15% | decreased IL-8 secretion | preserved the gut microbiome | – | – | – | –
2 | rCST9: human recombinant cystatin 9, cysteine proteinase inhibitor; purchased from American Research Products, Inc. (protein, UniProt Q5W186 29-159, looked up) Cystatin-9: WCSEEEMGGNNKIVQDPMFLATVEFALNTFNVQSKEEHAYRLLRVLSSWREDSMDRKWRGKMVFSMNLQLRQTVCRKFEDDIDNCPFQESLELNNVRQGISFPQVHSCGCCMGCGVGTGAADKAIPRDKGK | increased survival and 10% | 10% | 5% | 10% | 10% | 15% | decreased IL-8 secretion | preserved the gut microbiome | retarded the viability and virulence | retarded the viability and virulence | induced human monocyte-derived macrophage (MDM) killing | did not improve survival

— patent US12053511B2, “Cystatin C and Cystatin 9 to treat gut inflammation caused by thermal injury” (priority 2016, dated 2024)
